Where a chain is given by its changes, count along the chain named. Names may count otherwise.
Assays:
[1] = target: the molecule itself; assay: SEC; 16/60 Sephacryl S-300 in 25 mM Tris-HCl pH 8.0, 100 mM NaCl, 10% glycerol, 1 mM TCEP; no exogenous ligand; tetramer and monomer peaks
[2] = target: T1, His-TEV-PPARγ (234-505) (human, UniProt P37231 234-505); assay: SEC; analytical, 10/300 Superdex 200; equivalent molar volumes loaded; heterodimer formed by mixing the two proteins at a 1:1 molar ratio; no ligand; conditions: both partners purified
T1 construct: The methods name no species for the bacterial construct; No tag cleavage is described for this preparation; also called PPARg; source: E. coli, purified (Ni-NTA, size exclusion chromatography)
T1 sequence (looked up): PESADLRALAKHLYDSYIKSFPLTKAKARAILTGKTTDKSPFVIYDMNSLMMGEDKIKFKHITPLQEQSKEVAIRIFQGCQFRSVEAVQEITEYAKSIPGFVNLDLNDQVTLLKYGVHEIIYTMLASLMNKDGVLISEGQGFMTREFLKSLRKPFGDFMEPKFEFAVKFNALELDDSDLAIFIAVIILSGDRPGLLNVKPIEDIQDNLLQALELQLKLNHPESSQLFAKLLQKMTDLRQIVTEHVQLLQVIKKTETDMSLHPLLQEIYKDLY

[3] = target: T2, His-TEV-RXRα-WT (223-462) (Homo sapiens (Human), UniProt P19793); assay: SPR; monomer fraction of RXRα WT used (apo tetramer is inactive)
T2 chain: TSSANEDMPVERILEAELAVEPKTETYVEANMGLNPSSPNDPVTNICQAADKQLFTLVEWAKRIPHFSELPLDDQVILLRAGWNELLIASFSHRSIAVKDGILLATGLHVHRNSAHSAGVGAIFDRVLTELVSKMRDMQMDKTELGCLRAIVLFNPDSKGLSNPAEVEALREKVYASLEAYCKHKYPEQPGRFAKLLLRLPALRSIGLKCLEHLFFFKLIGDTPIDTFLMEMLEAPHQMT

[4] = target: T3, His-TEV-RXRα-S427F (223-462) (Homo sapiens (Human), UniProt P19793); assay: SPR (also analytical size exclusion chromatography); S427F mutant of RXRα; binding seen without added ligand
T3 chain: T2 chain with S205F

B1: His-TEV-RXRα-WT (223-462) (domain or fragment, human, UniProt P19793 223-462, looked up)
chain: T2 chain
For B1, the “stoichiometry N” value [1] was 4.

B2: His-TEV-RXRα-S427F (223-462) (domain or fragment, human, UniProt P19793 223-462, looked up)
chain: T2 chain with S205F
notes: S427F is a recurrent mutation found in patients' tumours; No tag cleavage is described for this preparation; also called the mutant; source: E. coli, purified (Ni-NTA, size exclusion chromatography)
B2: binds [2].

B3: His-TEV-PPARγ (234-505) (protein)
chain: T1 sequence (looked up)
B3: binds [3]; binds [4].
